Assay [1] addresses human vascular endothelial growth factor 165 (hVEGF), E. coli-derived, after tag cleavage (human). Nature of the assay: SEC; SEC-HPLC, Protein-pak 300SW SEC 7.5 x 300 mm column, 1X PBS pH 7.4, room temperature, 1 mL/min, detection at 280 nm; peaks checked on non-reducing SDS-PAGE. A general note: SEC sorts molecules by how far they enter the pores of the column.
Assay [2] shares this target. Nature of the assay: non-reducing SDS-PAGE; purified hVEGF in sample buffer with SDS, without DTT (non-reducing) against with 100 mM DTT (reducing), tricine SDS-PAGE, Coomassie stain; shows disulfide-linked forms.

The values that follow come from paper PMC4883780.

What is called stoichiometry N is the number of molecules, sites or subunits per partner or assembly.

For the substance “human vascular endothelial growth factor 165 (hVEGF), E. coli-derived, after tag cleavage (ligand)”, the stoichiometry N in assay [1] and in assay [2] was 2 in each case.
